B1: human Ev1 protein (NCBI accession No. AAF21709) (other, UniProt Q9UI08-2 1-418, looked up)
chain: MATSEQSICQARASVMVYDDTSKKWVPIKPGQQGFSRINIYHNTASNTFRVVGVKLQDQQVVINYSIVKGLKYNQATPTFHQWRDARQVYGLNFASKEEATTFSNAMLFALNIMNSQEGGPSSQRQVQNGPSPDEMDIQRRQVMEQHQQQRQESLERRTSATGPILPPGHPSSAASAPVSCSGPPPPPPPPVPPPPTGATPPPPPPLPAGGAQGSSHDESSMSGLAAAIAGAKLRRVQRPEDASGGSSPSGTSKSDANRASSGGGGGGLMEEMNKLLAKRRKAASQSDKPAEKKEDESQMEDPSTSPSPGTRAASQPPNSSEAGRKPWERSNSVEKPVSSILSRTPSVAKSPEAKSPLQSQPHSRMKPAGSVNDMALDAFDLDRMKQEILEEVVRELHKVKEEIIDAIRQELSGISTT
notes: range 1-418; His tag removed by thrombin; By gel filtration it eluted at approximately 600 kDa (approximately 13-mer multimer); In the pull-down it was either coupled covalently to Affi-Gel 10 beads or free in solution; also called entire-length Ev1 protein; His-Ev1 (before the tag was removed)
B2: Rad51B protein (other, UniProt O15315-1 1-350, looked up)
chain: MGSKKLKRVGLSQELCDRLSRHQILTCQDFLCLSPLELMKVTGLSYRGVHELLCMVSRACAPKMQTAYGIKAQRSADFSPAFLSTTLSALDEALHGGVACGSLTEITGPPGCGKTQFCIMMSILATLPTNMGGLEGAVVYIDTESAFSAERLVEIAESRFPRYFNTEEKLLLTSSKVHLYRELTCDEVLQRIESLEEEIISKGIKLVILDSVASVVRKEFDAQLQGNLKERNKFLAREASSLKYLAEEFSIPVILTNQITTHLSGALASQADLVSPADDLSLSEGTSGSSCVIAALGNTWSHSVNTRLILQYLDSERRQILIAKSPLAPFTSFVYTIKEEGLVLQAYGNS
notes: In the pull-down it was either coupled to Affi-Gel 10 beads or free in solution

Data set [1] deals with the molecule itself. The data set can be described thus: inferred from the pull-down on Rad51B-bound beads; gel filtration (approximately 600 kDa). In general terms: Size exclusion chromatography separates by hydrodynamic size, large species first.
In data set [2] the target is B1. The data set can be described thus: pull-down, Ev1 coupled to Affi-Gel 10 beads, SDS-PAGE, Coomassie stain. The procedure: Thereafter, the obtained mixture was incubated at 4° C. overnight. The Affi-Gel 10-Ev1 beads were washed 3 times with 500 μl of washing buffer 1 (20 mM potassium phosphate (pH 8.5), 30% glycerol, 700 mM NaCl, 5 mM 2-mercaptoethanol, and 0.05% Triton X-100). The Affi-Gel 10-Rad51B beads were washed 3 times with washing buffer 2 (20 mM HEPES-NaOH (pH 7.3), 30% glycerol, 90 mM NaCl, 2 mM 2-mercaptoethanol, 0.1% Triton X-100, 2 mM ammonium sulfate, and 0.1 mM EDTA). Thereafter, a 50% suspension of such Affi-Gel 10-protein was prepared, and it was then preserved at 4° C.
In order to carry out a binding assay, an Affi-Gel 10-protein suspension (30 μl) was incubated with 10 μg of an Ev1 or Rad51B protein at room temperature for 150 minutes. Affi-Gel 10-Ev1 beads were washed 4 times with 100 μl of buffer 1 (20 mM potassium phosphate (pH 8.5), 30% glycerol, 700 mM NaCl, 5 mM 2-mercaptoethanol, and 0.3% Triton X-100). Affi-Gel 10-Rad51B beads were washed 4 times with 100 μl of buffer 2 (20 mM HEPES-NaOH (pH 7.3), 30% glycerol, 90 mM NaCl, 2 mM 2-mercaptoethanol, 2 mM ammonium sulfate, 0.1 mM EDTA, and 0.35% Triton X-100). An SDS-PAGE sample treatment buffer (2×) was directly mixed with the washed beads, and the obtained mixture was then subjected to a heat treatment at 100° C. for 2 minutes. […]

We go through two molecules from patent publication US20100068766A1 (WASEDA UNIVERSITY, published 2010).

B1: the binding result in data set [1] is recorded as “binds”.
For the molecule B2, the stoichiometric ratio in data set [2] was 1 Rad51B:Ev1 (1:1).
